{"source": "paper PMC3324550", "about": "“Antibiotic Resistance Is Prevalent in an Isolated Cave Microbiome” (PLoS ONE, 2012)", "key": {"[1]": {"tested_on": "T1, MPH (2′)-II from B. paraconglomeratum (mphE)", "T1 construct": "codon-optimised synthetic gene in pET28b (NdeI/HindIII), E. coli BL21(DE3); IMAC and gel filtration", "experiment": "pyruvate kinase/lactate dehydrogenase coupled assay, NADH absorbance at […] nm", "format": "biochemical, Brachybacterium paraconglomeratum"}, "[2]": {"target": "T1, MPH (2′)-II from B. paraconglomeratum (mphE)", "experiment": "pyruvate kinase/lactate dehydrogenase coupled assay, NADH absorbance at […] nm", "format": "biochemical, Brachybacterium paraconglomeratum", "details": "substrate inhibition constant (substrate-inhibition fit); GTP 200 µM"}, "[3]": {"tested_on": "CC[C@H]1OC(=O)[C@H](C)[C@@H](O[C@H]2C[C@@](C)(OC)[C@@H](O)[C@H](C)O2)[C@H](C)[C@@H](O[C@@H]2O[C@H](C)C[C@H](N(C)C)[C@H]2O)[C@](C)(O)C[C@@H](C)CN(C)[C@H](C)[C@@H](O)[C@]1(C)O", "experiment": "purified protein", "format": "biochemical, Brachybacterium faecium", "details": "GTP 200 µM"}, "[4]": {"tested_on": "CC[C@H]1OC(=O)[C@H](C)[C@@H](O[C@H]2C[C@@](C)(OC)[C@@H](O)[C@H](C)O2)[C@H](C)[C@@H](O[C@@H]2O[C@H](C)C[C@H](N(C)C)[C@H]2O)[C@](C)(OC)C[C@@H](C)C(=O)[C@H](C)[C@@H](O)[C@]1(C)O", "experiment": "purified protein", "format": "biochemical, Brachybacterium faecium", "details": "GTP 200 µM"}, "[5]": {"tested_on": "CC[C@H]1OC(=O)[C@H](C)C(=O)[C@H](C)[C@@H](O[C@@H]2O[C@H](C)C[C@H](N(C)C)[C@H]2O)[C@](C)(OC)C[C@@H](C)C(=O)[C@H](C)[C@H]2N(CCCCn3cnc(-c4cccnc4)c3)C(=O)O[C@]12C", "experiment": "purified protein", "format": "biochemical, Brachybacterium faecium", "details": "GTP 200 µM"}, "[6]": {"tested_on": "CC[C@H]1OC(=O)[C@H](C)[C@@H](O[C@H]2C[C@@](C)(OC)[C@@H](O)[C@H](C)O2)[C@H](C)[C@@H](O[C@@H]2O[C@H](C)C[C@H](N(C)C)[C@H]2O)[C@](C)(O)C[C@@H](C)C(=O)[C@H](C)[C@@H](O)[C@]1(C)O", "experiment": "purified protein", "format": "biochemical, Brachybacterium faecium", "details": "GTP 200 µM"}, "[7]": {"tested_on": "CC[C@H]1OC(=O)[C@H](C)[C@@H](O[C@H]2C[C@@](C)(OC)[C@@H](O)[C@H](C)O2)[C@H](C)[C@@H](O[C@@H]2O[C@H](C)C[C@H](N(C)C)[C@H]2O)[C@](C)(O)C[C@@H](C)/C(=N\\OCOCCOC)[C@H](C)[C@@H](O)[C@]1(C)O", "experiment": "purified protein", "format": "biochemical, Brachybacterium faecium", "details": "GTP 200 µM"}, "[8]": {"tested_on": "Nc1nc2c(ncn2[C@@H]2O[C@H](COP(=O)(O)OP(=O)(O)OP(=O)(O)O)[C@@H](O)[C@H]2O)c(=O)[nH]1", "experiment": "purified protein", "format": "biochemical, Brachybacterium faecium", "details": "erythromycin 400 µM (table note; methods say 200 µM macrolide)"}}}
{"molecule": "CC[C@H]1OC(=O)[C@H](C)[C@@H](O[C@H]2C[C@@](C)(OC)[C@@H](O)[C@H](C)O2)[C@H](C)[C@@H](O[C@@H]2O[C@H](C)C[C@H](N(C)C)[C@H]2O)[C@](C)(O)C[C@@H](C)CN(C)[C@H](C)[C@@H](O)[C@]1(C)O", "note": "[Azithromycin]", "values": [{"measurement": "Km", "setting": "[1]; GTP 200 µM", "result": "54 ± 7.59", "unit": "µM"}]}
{"molecule": "CC[C@H]1OC(=O)[C@H](C)C(=O)[C@H](C)[C@@H](O[C@@H]2O[C@H](C)C[C@H](N(C)C)[C@H]2O)[C@](C)(OC)C[C@@H](C)C(=O)[C@H](C)[C@H]2N(CCCCn3cnc(-c4cccnc4)c3)C(=O)O[C@]12C", "note": "[Telithromycin]", "values": [{"measurement": "Km", "setting": "[1]; GTP 200 µM, substrate-inhibition fit", "result": "12.2 ± 5", "unit": "µM"}, {"measurement": "Ki", "setting": "[2]", "result": "600 ± 285", "unit": "µM"}]}
{"molecule": "CC[C@H]1OC(=O)[C@H](C)[C@@H](O[C@H]2C[C@@](C)(OC)[C@@H](O)[C@H](C)O2)[C@H](C)[C@@H](O[C@@H]2O[C@H](C)C[C@H](N(C)C)[C@H]2O)[C@](C)(O)C[C@@H](C)C(=O)[C@H](C)[C@@H](O)[C@]1(C)O", "note": "[Erythromycin]", "values": [{"measurement": "Km", "setting": "[1]; GTP 200 µM", "result": "43.8 ± 11.3", "unit": "µM"}]}
{"molecule": "CC[C@H]1OC(=O)[C@H](C)[C@@H](O[C@H]2C[C@@](C)(OC)[C@@H](O)[C@H](C)O2)[C@H](C)[C@@H](O[C@@H]2O[C@H](C)C[C@H](N(C)C)[C@H]2O)[C@](C)(OC)C[C@@H](C)C(=O)[C@H](C)[C@@H](O)[C@]1(C)O", "note": "[Clarithromycin]", "values": [{"measurement": "Km", "setting": "[1]; GTP 200 µM", "result": "21.9 ± 5.45", "unit": "µM"}]}
{"molecule": "Nc1nc2c(ncn2[C@@H]2O[C@H](COP(=O)(O)OP(=O)(O)OP(=O)(O)O)[C@@H](O)[C@H]2O)c(=O)[nH]1", "note": "[GTP]", "values": [{"measurement": "Km", "setting": "[1]; erythromycin 400 µM (table note; methods say 200 µM macrolide)", "result": "10.2 ± 0.53", "unit": "µM"}]}
{"molecule": "MPH (2′)-II from B. faecium DSM 4810 (Brachybacterium faecium DSM 4810)", "values": [{"measurement": "Km", "setting": "[3]", "result": "60.6 ± 8.86", "unit": "µM"}, {"measurement": "kcat", "setting": "[3]", "result": 0.312, "unit": "s⁻¹"}, {"measurement": "kcat/Km", "setting": "[3]", "result": 5180, "unit": "M⁻¹ s⁻¹"}, {"measurement": "Km", "setting": "[4]", "result": "42.0 ± 6.26", "unit": "µM"}, {"measurement": "kcat", "setting": "[4]", "result": 0.286, "unit": "s⁻¹"}, {"measurement": "kcat/Km", "setting": "[4]", "result": 6810, "unit": "M⁻¹ s⁻¹"}, {"measurement": "Km", "setting": "[5]", "result": "23.9 ± 4.22", "unit": "µM"}, {"measurement": "kcat", "setting": "[5]", "result": 0.168, "unit": "s⁻¹"}, {"measurement": "kcat/Km", "setting": "[5]", "result": 7050, "unit": "M⁻¹ s⁻¹"}, {"measurement": "Km", "setting": "[6]", "result": "38.2 ± 6.24", "unit": "µM"}, {"measurement": "kcat", "setting": "[6]", "result": 0.192, "unit": "s⁻¹"}, {"measurement": "kcat/Km", "setting": "[6]", "result": 5030, "unit": "M⁻¹ s⁻¹"}, {"measurement": "Km", "setting": "[7]", "result": "19.3 ± 2.60", "unit": "µM"}, {"measurement": "kcat", "setting": "[7]", "result": 0.262, "unit": "s⁻¹"}, {"measurement": "kcat/Km", "setting": "[7]", "result": 13600, "unit": "M⁻¹ s⁻¹"}, {"measurement": "Km", "setting": "[8]", "result": "16.0 ± 1.3", "unit": "µM"}, {"measurement": "kcat", "setting": "[8]", "result": 0.203, "unit": "s⁻¹"}, {"measurement": "kcat/Km", "setting": "[8]", "result": 12700, "unit": "M⁻¹ s⁻¹"}]}
{"molecule": "CC[C@H]1OC(=O)[C@H](C)[C@@H](O[C@H]2C[C@@](C)(OC)[C@@H](O)[C@H](C)O2)[C@H](C)[C@@H](O[C@@H]2O[C@H](C)C[C@H](N(C)C)[C@H]2O)[C@](C)(O)C[C@@H](C)/C(=N\\OCOCCOC)[C@H](C)[C@@H](O)[C@]1(C)O", "note": "[Roxithromycin]", "values": [{"measurement": "Km", "setting": "[1]; GTP 200 µM", "result": "59 ± 10.9", "unit": "µM"}]}
